# Where a chain is given by its changes, count along the chain named.
# B1: HE-1 anti-albumin (VHH)
# VHH: EVQLVESGGGLVQPGGSLRLSCAASGSTFYTAVMGWVRQAPGKGLEWVAAIRWTALTTSYADSVKGRFTISRDGAKTTLYLQMNSLRPEDTAVYYCAARGTLGLFTTADSYDYWGQGTLVTVSS
# notes: Single domain antibody; also called half-life extending single domain antibody
# B2: HE-2 (VHH)
# VHH: B1 VHH with S110H
# notes: also called (HE-2) Anti-albumin
# B3: Polypeptide complex PC3 (bispecific antibody)
# light: DIQLTQSPSSLSASVGDRVSITCKASQDVSIAVAWYQQKPGKAPKLLIYSASYRYTGVPDRFSGSGSGTDFTLTISSLQPEDFAVYYCQQHYITPLTFGAGTKVEIKRTVAAPSVFIFPPSDEQLKSGTASVVCLLNNFYPREAKVQWKVDNALQSGNSQESVTEQDSKDSTYSLSSTLTLSKADYEKHKVYACEVTHQGLSSPVTKSFNRGEC
# heavy: QTVVTQEPSLTVSPGGTVTLTCRSSTGAVTTSNYANWVQQKPGQAPRGLIGGTNKRAPGTPARFSGSLLGGKAALTLSGVQPEDEAEYYCALWYSNLWVFGGGTKLTVLGGGGSGGGGSGGGGSEVQLVESGGGLVQPGGSLKLSCAASGFTFNTYAMNWVRQAPGKGLEWVARIRSKYNNYATYYADSVKDRFTISRDDSKNTAYLQMNNLKTEDTAVYYCVRHGNFGNSYVSWFAYWGQGTLVTVSSGGGGSQVQLQQSGSELKKPGASVKVSCKASGYTFTNYGMNWVKQAPGQGLKWMGWINTYTGEPTYTDDFKGRFAFSLDTSVSTAYLQISSLKADDTAVYFCARGGFGSSYWYFDVWGQGSLVTVSSASTKGPSVFPLAPSSKSTSGGTAALGCLVKDYFPEPVTVSWNSGALTSGVHTFPAVLQSSGLYSLSSVVTVPSSSLGTQTYICNVNHKPSNTKVDKKVEPKSC
# notes: TROP2 and CD3 targeting regions (anti-CD3 scFv fused to the Fab heavy chain); No mask and no HE-1
# B4: Polypeptide complex PC4 (bispecific antibody)
# light: GGVDFCKIYSWPVCHQGGGGSGGLSGRSDAGSPLGLAGSGGSDIQLTQSPSSLSASVGDRVSITCKASQDVSIAVAWYQQKPGKAPKLLIYSASYRYTGVPDRFSGSGSGTDFTLTISSLQPEDFAVYYCQQHYITPLTFGAGTKVEIKRTVAAPSVFIFPPSDEQLKSGTASVVCLLNNFYPREAKVQWKVDNALQSGNSQESVTEQDSKDSTYSLSSTLTLSKADYEKHKVYACEVTHQGLSSPVTKSFNRGEC
# heavy: not shown
# Assays:
# human serum albumin [1] = biological target: T1, human serum albumin (human, UniProt P02768 25-609); assay: ELISA on an albumin coated plate, single domain antibody titrated, HRP secondary antibody, OD 450 nm
# T1 construct: also called HSA; HSA-biotin
# human serum albumin [2] = biological target: T1, human serum albumin; assay: ELISA, albumin coated plates, single domain antibody titrated, pH 5.5
# [3] = biological target: T2, cynomolgus monkey serum albumin (cynomolgus monkey, UniProt A2V9Z4 25-608); assay: as above
# T2 construct: Coated on ELISA plates; also called cyno albumin
# T2 sequence (A2V9Z4 25-608 limits assumed): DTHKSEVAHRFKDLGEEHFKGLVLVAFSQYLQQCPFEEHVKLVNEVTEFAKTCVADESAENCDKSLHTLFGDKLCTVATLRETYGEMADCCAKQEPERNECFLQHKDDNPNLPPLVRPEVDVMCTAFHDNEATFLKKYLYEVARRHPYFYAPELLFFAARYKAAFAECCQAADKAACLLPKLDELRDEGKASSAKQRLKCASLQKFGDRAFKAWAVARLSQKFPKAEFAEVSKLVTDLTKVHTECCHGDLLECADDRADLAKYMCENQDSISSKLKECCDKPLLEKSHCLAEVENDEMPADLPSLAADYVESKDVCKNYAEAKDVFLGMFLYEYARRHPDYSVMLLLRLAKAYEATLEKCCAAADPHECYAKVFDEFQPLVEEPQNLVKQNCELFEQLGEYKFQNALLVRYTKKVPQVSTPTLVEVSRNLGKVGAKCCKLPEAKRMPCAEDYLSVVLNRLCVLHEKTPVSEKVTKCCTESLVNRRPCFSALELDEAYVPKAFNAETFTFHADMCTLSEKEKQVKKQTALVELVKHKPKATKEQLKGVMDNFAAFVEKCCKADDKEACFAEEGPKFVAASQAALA
# human serum albumin [4] = biological target: T1, human serum albumin; assay: BLI (Octet RED96), biotinylated HSA on streptavidin biosensors, HE-1 titrated 100-3.125 nM, pH 7.4, 1:1 fit
# human serum albumin [5] = biological target: T1, human serum albumin; assay: ELISA, albumin coated plates, single domain antibody titrated, pH 7.4
# [6] = biological target: T2, cynomolgus monkey serum albumin; assay: as above
# [7] = biological target: T2, cynomolgus monkey serum albumin; assay: ELISA on an albumin coated plate, single domain antibody titrated, HRP secondary antibody, OD 450 nm
# human serum albumin [8] = biological target: T1, human serum albumin; assay: BLI (Octet RED96), biotinylated HSA on streptavidin biosensors, HE-1 titrated 100-3.125 nM, association and dissociation at pH 5.5, 1:1 fit
# Mouse Albumin = biological target: T3, Mouse Albumin (mouse, UniProt P07724); assay: ELISA on an albumin coated plate, single domain antibody titrated, HRP secondary antibody, OD 450 nm
# T3 construct: coated on the ELISA plate; not described further; also called mouse serum albumin
# T3 sequence (P07724 25-608 limits assumed): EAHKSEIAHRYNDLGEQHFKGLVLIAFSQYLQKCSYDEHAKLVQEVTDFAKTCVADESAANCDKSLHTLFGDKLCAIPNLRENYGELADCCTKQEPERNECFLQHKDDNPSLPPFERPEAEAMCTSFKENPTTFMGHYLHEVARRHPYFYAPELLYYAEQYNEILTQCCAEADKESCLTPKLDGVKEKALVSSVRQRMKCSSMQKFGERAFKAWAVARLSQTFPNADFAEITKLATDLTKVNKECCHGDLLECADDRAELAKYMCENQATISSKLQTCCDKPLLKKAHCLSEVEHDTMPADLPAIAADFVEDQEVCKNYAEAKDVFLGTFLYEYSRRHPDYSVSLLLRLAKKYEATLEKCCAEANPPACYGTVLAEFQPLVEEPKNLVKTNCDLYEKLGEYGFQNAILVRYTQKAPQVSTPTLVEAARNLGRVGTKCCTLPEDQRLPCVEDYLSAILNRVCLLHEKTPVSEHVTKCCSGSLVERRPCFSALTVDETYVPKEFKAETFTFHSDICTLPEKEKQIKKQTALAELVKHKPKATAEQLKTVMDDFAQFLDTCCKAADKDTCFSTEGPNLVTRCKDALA
# human serum albumin [9] = biological target: T1, human serum albumin; assay: Octet, biotinylated human serum albumin on streptavidin biosensors, acidic buffer, association 1 (saturation using SDA)
# [10] = biological target: T4, TROP2 on NCI-H292 tumor cells (UniProt P09758 27-274); assay: Trop2 binding ELISA (TROP2 as ELISA antigen, not on cells), polypeptide complex titrated, OD 450 nm
# T4 construct: whole, on cells; also called tumor-associated calcium signal transducer 2
# T4 sequence (looked up): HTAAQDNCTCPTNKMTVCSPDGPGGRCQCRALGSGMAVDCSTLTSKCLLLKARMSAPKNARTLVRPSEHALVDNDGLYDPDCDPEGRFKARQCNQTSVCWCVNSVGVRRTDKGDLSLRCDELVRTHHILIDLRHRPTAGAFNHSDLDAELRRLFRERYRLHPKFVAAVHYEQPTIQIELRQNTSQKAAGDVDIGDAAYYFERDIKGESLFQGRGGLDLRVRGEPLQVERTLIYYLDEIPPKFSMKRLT
# [11] = biological target: T4, TROP2 on NCI-H292 tumor cells; assay: cell-based or functional assay
binder,measurement,setting,value
B1,EC50 (read off the curve),human serum albumin [1],~1 nM
same,EC50,human serum albumin [2],0.9 nM
same,EC50,[3],1.3 nM
same,Kd,human serum albumin [4],5.98 nM
same,koff,human serum albumin [4],0.00341 s⁻¹
same,kon,human serum albumin [4],571000 M⁻¹ s⁻¹
same,EC50,human serum albumin [5],1 nM
same,EC50,[6],1.3 nM
same,EC50 (read off the curve),[7],~2 nM
same,Kd,human serum albumin [8],4.19 nM
same,koff,human serum albumin [8],0.00186 s⁻¹
same,kon,human serum albumin [8],444000 M⁻¹ s⁻¹
same,binding result,Mouse Albumin,binds
B2,binding result,human serum albumin [9],binds
B3,EC50 (read off the curve),[10],~0.2 nM
same,"H292 IC50 (pM), 72 hours, tumor cell killing with CD8+ T cells",[11],0.88 pM
B4,"H292 IC50 (pM), 72 hours, tumor cell killing with CD8+ T cells",[11],4120 pM

# Reference: US20240034814A1 (JANUX THERAPEUTICS, published 2024)
